Values of other authors as cited in PMC5487681, “Identification of Antifungal H^+-ATPase Inhibitors with Effect on Plasma Membrane Potential” (Antimicrobial Agents and Chemotherapy, 2017).

System: C. albicans cells
Parameters: method as in PMID 27139463

B1: lactoferrin: immunoprotein that inhibits Pma1 (protein, UniProt P02788 20-710, looked up)
Lactotransferrin: GRRRSVQWCAVSQPEATKCFQWQRNMRKVRGPPVSCIKRDSPIQCIQAIAENRADAVTLDGGFIYEAGLAPYKLRPVAAEVYGTERQPRTHYYAVAVVKKGGSFQLNELQGLKSCHTGLRRTAGWNVPIGTLRPFLNWTGPPEPIEAAVARFFSASCVPGADKGQFPNLCRLCAGTGENKCAFSSQEPYFSYSGAFKCLRDGAGDVAFIRESTVFEDLSDEAERDEYELLCPDNTRKPVDKFKDCHLARVPSHAVVARSVNGKEDAIWNLLRQAQEKFGKDKSPKFQLFGSPSGQKDLLFKDSAIGFSRVPPRIDSGLYLGSGYFTAIQNLRKSEEEVAARRARVVWCAVGEQELRKCNQWSGLSEGSVTCSSASTTEDCIALVLKGEADAMSLDGGYVYTAGKCGLVPVLAENYKSQQSSDPDPNCVDRPVEGYLAVAVVRRSDTSLTWNSVKGKKSCHTAVDRTAGWNIPMGLLFNQTGSCKFDEYFSQSCAPGSDPRSNLCALCIGDEQGENKCVPNSNERYYGYTGAFRCLAENAGDVAFVKDVTVLQNTDGNNNEAWAKDLKLADFALLCLDGKRKPVTEARSCHLAMAPNHAVVSRMDKVERLKQVLLHQQAKFGRNGSDCPDKFCLFQSETKNLLFNDNTECLARLHGKTTYEKYLGPQYVAGITNLKKCSTSPLLEACEFLRK
Increase in iATP levels, C. albicans: > 600%
